This is an account of results in patent US20180022822A1, “NOVEL ANTI-FIBROBLAST ACTIVATION PROTEIN (FAP) BINDING AGENTS AND USES THEREOF” (Mabimmune Diagnostics AG, priority 2016, published 2018).

One test addresses T1, captured FAP (sFAP) (Homo sapiens, UniProt Q12884).
T1 sequence (Q12884 1-760): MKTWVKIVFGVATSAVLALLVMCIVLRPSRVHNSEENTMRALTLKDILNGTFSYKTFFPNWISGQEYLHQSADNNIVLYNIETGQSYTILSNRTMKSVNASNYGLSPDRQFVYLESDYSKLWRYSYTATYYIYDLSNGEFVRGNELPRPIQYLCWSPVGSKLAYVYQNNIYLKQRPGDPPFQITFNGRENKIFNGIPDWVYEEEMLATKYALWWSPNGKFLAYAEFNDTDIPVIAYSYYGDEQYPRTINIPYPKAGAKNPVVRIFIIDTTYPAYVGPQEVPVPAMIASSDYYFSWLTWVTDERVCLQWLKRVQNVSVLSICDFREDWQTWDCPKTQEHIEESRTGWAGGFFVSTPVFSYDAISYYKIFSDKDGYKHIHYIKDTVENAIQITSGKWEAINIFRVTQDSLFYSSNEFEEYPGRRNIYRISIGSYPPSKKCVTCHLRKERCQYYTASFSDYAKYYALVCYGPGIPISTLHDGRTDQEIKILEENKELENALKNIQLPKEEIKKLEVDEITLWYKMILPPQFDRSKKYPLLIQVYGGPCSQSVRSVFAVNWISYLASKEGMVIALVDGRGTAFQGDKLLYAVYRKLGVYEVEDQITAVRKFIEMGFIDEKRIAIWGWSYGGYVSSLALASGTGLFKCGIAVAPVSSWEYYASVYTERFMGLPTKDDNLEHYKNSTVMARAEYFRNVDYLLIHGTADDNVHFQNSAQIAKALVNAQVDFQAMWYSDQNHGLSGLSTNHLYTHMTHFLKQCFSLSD
Nature of the test: capture ELISA, FAP captured via his-tag with coated anti-His antibody. It counts as binding. Particulars: ELISA, varying antibody concentrations. How it is done: (§1) ELISA assays were performed with varying antibody concentrations to validate the binding of the exemplary antibodies of the present invention to FAP and to be able to determine their half maximal effective concentration (EC50). For the exemplary recombinant human NI-206-18H2, NI-206-20A8, NI-206-6D3, ‘NI-206-14C5, NI-206-34C11, NI-206.82C2, NI-206.59B4, NI-206.22F7, NI-206.27E8, NI-206.12G4 and NI-206.17A6 antibodies, 96-well microplates (Costar, Corning, USA) were coated with FAP, with a mixture of the 3 peptides or with BSA (Sigma-Aldrich, Buchs, Switzerland) diluted to a concentration of 5 μg/ml in carbonate ELISA coating buffer (15 mM Na2CO3, 35 mM NaHCO3, pH 9.4) for the direct ELISA. For the capture ELISA, the microplates were coated with mouse anti-His monoclonal antibody (Clontech) diluted to a concentration of 3 μg/ml in PBS, the plates were then blocked, FAP or BSA were diluted to a concentration of 2 μg/ml in PBS and added to the plates to be captured. The binding efficiency of the antibodies was then tested.
(§2) The EC50 values were estimated by a non-linear regression using GraphPad Prism (San Diego, USA) software. […] The binding of NI-206.12G4 towards sFAP was not tested.
For orientation: An ELISA detects its analyte on a solid surface through an enzyme-linked reagent.

In test [1] the target is T2, directly coated FAP (FAP) (Homo sapiens, UniProt Q12884).
T2 sequence (Q12884 1-760): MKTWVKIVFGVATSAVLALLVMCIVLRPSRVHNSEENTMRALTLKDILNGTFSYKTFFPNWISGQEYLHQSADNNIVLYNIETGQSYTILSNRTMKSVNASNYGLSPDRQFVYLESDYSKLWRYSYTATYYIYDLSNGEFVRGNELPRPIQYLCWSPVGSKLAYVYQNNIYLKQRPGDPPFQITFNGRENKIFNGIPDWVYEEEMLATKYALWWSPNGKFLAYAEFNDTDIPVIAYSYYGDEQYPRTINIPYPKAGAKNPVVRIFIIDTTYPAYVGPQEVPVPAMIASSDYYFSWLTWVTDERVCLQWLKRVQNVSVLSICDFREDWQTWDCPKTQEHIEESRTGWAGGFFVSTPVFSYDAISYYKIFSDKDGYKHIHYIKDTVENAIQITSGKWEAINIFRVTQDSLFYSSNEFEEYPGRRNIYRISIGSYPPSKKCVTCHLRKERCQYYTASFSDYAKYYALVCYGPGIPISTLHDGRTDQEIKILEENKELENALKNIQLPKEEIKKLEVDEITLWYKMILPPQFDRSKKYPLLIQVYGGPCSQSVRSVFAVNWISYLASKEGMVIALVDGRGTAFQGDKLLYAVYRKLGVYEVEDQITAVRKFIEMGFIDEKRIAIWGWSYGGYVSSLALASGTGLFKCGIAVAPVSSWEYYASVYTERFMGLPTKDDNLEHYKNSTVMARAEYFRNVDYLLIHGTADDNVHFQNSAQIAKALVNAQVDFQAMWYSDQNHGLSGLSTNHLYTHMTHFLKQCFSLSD
Nature of the test: direct ELISA on directly coated FAP. The test is classed as binding. Particulars: ELISA, varying antibody concentrations. As to the method:
as §1, §2

The subject of test [2] is directly coated FAP peptides mixture (cFAP). In words: direct ELISA on coated mixture of FAP peptides. It counts as binding, human. Particulars: peptides 378-392, 622-636, 721-736. How it is done: as §1, §2
Another test addresses T3, BSA (Bos taurus, UniProt P02769).
T3 construct: purchased Sigma-Aldrich
In words: ELISA control binding to BSA. Set-up: species or system bovine. How it is done: as §1

For test [3], the target named is T4, recombinant human FAP (sFAP, FAP) versus CD26 and unrelated human antigens (A-N) (Homo sapiens, UniProt Q12884).
T4 sequence (Q12884 26-760 limits assumed): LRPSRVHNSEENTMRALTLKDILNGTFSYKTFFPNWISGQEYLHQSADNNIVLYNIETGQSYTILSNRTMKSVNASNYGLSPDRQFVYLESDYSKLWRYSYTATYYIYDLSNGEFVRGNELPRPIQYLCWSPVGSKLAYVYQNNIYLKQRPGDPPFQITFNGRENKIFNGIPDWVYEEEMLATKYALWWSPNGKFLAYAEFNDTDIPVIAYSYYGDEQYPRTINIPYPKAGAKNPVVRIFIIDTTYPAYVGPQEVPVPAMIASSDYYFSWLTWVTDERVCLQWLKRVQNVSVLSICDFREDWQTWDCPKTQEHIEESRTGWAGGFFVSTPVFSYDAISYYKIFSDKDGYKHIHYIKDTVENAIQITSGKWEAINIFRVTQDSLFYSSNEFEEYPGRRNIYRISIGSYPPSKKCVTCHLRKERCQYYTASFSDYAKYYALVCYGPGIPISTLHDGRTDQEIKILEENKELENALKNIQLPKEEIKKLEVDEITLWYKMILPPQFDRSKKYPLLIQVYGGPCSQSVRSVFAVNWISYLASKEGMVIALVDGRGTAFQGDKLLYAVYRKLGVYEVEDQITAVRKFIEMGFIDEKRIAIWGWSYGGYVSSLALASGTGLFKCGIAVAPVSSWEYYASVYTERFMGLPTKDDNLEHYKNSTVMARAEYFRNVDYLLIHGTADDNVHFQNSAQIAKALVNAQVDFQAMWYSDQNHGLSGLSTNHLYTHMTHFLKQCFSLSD
Nature of the test: binding specificity ELISA against FAP versus unrelated human antigens. Particulars: detection antibody at 20, 4 and 0.8 nM. As to the method:
A mouse anti-6×-histidine tag antibody (Clonetech) was coated at a concentration of 3 μg/ml in PBS to a 96 well ELISA plate, the plates were then blocked with 5% BSA in PBS, and enzymatically active recombinant human FAP with an N-terminus 6× histidine tag was added to the plates to be captured. The binding efficiency of NI-206.82C2, NI-206.18H2, NI-206.20A8 and NI-206.6D3 (at 20 nM, 4 nM, and 0.8 nM) against sFAP and of NI-206.18H2, NI-206.20A8 and NI-206.6D3 against FAP as well was then tested by 1 hour incubation, followed by washing with PBS and detection with an HRP-labelled goat anti-human antibody (Jackson Immunoresearch) using a colormetric assay. To assess NI-206.82C2, NI-206.18H2, NI-206.20A8 and NI-206.6D3 binding other targets, recombinant human CD26 (only in case of NI-206.82C2) and fourteen other unrelated recombinant human proteins (A-N) were individually added to a 96-well ELISA plate in triplicate, and the binding efficacy of NI-206.82C2 was evaluated. (FIG. 7A to D)

T3 sequence (P02769 25-607): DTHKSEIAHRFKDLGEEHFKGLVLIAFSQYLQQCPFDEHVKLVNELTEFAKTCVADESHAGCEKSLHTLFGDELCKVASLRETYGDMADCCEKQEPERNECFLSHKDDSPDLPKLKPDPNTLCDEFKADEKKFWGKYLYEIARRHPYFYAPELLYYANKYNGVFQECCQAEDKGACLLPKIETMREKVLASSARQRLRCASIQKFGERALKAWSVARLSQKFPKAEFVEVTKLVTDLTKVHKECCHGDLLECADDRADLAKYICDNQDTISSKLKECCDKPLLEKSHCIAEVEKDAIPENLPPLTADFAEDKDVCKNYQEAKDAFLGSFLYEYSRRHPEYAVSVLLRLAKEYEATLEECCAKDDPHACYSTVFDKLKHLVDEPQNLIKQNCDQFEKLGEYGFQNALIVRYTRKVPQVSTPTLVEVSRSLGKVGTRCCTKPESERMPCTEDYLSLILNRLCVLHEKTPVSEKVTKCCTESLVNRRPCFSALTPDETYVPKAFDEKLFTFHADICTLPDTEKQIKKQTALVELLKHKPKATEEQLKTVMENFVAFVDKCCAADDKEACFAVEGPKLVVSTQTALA

B1: NI-206.20A8: human-derived recombinant anti-FAP antibody; VH SEQ ID NO: 45, VL SEQ ID NO: 47 (antibody, listed as Homo sapiens, V domains shown)
VH: EVQLVESGGGLVQPGGSLKLSCAGSGLDLSASAVHWVRQASGKGLEWIGRIRSKPNHYATTYLASVRGRFILSRDDSENTAYLQMNSLRTEDTAVYYCRIGILNSDHWGRGTLVTVSS
VL: QSVLTQPPSASGTPGQTVIISCSGSSSNLGRKTLNWYQQLPGAAPKLLIFKNDQRASGVPDRFSASKSGTSASLTISGLQSDDEADYYCGTWDDSLDNWVFGGGTKVTVL
Turning to B1, the “binding to the captured FAP” value with captured FAP (sFAP) is listed as “binds less efficiently”. For the same molecule, the “binding to the directly coated FAP” value in test [1] was “binds less efficiently”. Moreover, the “EC50 to the directly coated FAP peptides mixture (cFAP)” value in test [2] is on record as “did not show any binding”. Besides, in the test with BSA, the “binding to BSA” value is given as “does not bind”. Moreover, the “colorimetric ELISA signal against FAP versus panel of unrelated human antigens” value in test [3] is on record as “significantly greater”.
